Test results reported in the DeepSol protein solubility set.

Assay: soluble on expression in E. coli; label from the status in PepcDB or PDB records

Sequence	soluble on expression in E. coli
MDYRIRTSRDEDAALLPAIERSAGESFRLLPELAWIADAGVAGVDFHRRLIERGSHWLAEDADGQPVGFLAAERCADELHIAELSIAQAHQQQGLGRRLLERAVTYAHASHCRALTLTTFCDVPWNAPFYARLGFQRLTWQEAGERLRAILGHEQEIGFAADSRCAMRLVL	not soluble
MGHHHHHHSHMEWKVKVRSDGTRYVAKRPVRDRLLKARALKIREERSGMTTDDDAVSEMKMGRYWSKEERKQHLIRAREQRKRREFMMQSRLECLREQQNGDSKPELNIIALSHRKTMKKRNKKILDNWITIQEMLAHGARSADGKRVYNPLLSVTTV	not soluble
SLSRRGIDFLNDWIAEHHPDTLTEDPTAIADLADQLMAAAEKQGLSRRDISEEVGSVFQVILEAMQNRSGGRLYSSRWG	soluble
LLRHISDAFAEDPLRVLRVARFAARFHHLGFSIAEQTLELMQKMTACGELNHLTAERIWRETEKALHTESPHIYFQVLRKVNALAILFPEIDQLFGQIQSVKYHLETDRGQHTLLALQQAKLLVKQAHNPTALLWAVLCHDLGKDLISAEMLPHHYQPNVTGIQLTHQLADRLKVPTAVKELALLVNKYHTNCHKIAELDSERVLELFNQLDVWRKPQRLDDFLLACEADARARLGAEYCSYPQA	not soluble
DWNNQSIVKTGERQHGIHIQGSDPGGVRTASGTTIKVSGRQAQGILLENPAAELQFRNGSVTSSGQLSDDGIRRFLGTVTVKAGKLVADHATLANVGDTWDDDGIALYVAGEQAQASIADSTLQGAGGVQIERGANVTVQRSAIVDGGLHIGALQSLQPEDLPPSRVVLRDTNVTAVPASGAPAAVSVLGASELTLDGGHITGGRAAGVAAMQGAVVHLQRATIRRGDALAGGAVPGGAVPGGAVPGGFGPGGFGPVLDGWYGVDVSGSSVELAQSIVEAPELGAAIRVGRGARVTVPGGSLSAPHGNVIETGGARRFAPQAAPLSITLQAGAHAQGKALLYRVLPEPVKLTLTGGADAQGDIVATELPSIPGTSIGPLDVALASQARWTGATRAVDSLSIDNATWVMTDNSNVGALRLASDGSVDFQQPAEAGRFKVLTVNTLAGSGLFRMNVFADLGLSDKLVVMQDASGQHRLWVRNSGSEPASANTLLLVQTPLGSAATFTLANKDGKVDIGTYRYRLAANGNGQWSLVGAKAPP	soluble
MSVKEPEKFLASHIYNIDYQEDLNKCFANLCTNKKNTILLESAEIDTKDKLKSILVLNSALRIACIENKVFIKPLSENGKYALKAIQENIKKDVDYKYDNNQLVLTFEFIKDYQLSESQKLKKPSVFDALRIIKDSFEIYNEFSIFLAGLFAYDVVASFENIGKIKRKNKCPDYVFYLADTILVSDHQEQKTFIQVNSFGHQTITDLEDSVAAIKQNINNDIELKVEKFKNIEPKESINDRDFCIVVDKLKSHIIDGDIFQVVPSRSFFLPCQNSLEVYKELKRTNPSPYMFYMQDEDFILFGASPESALKYQKSTNQVEIYPIAGTRRRAKNSDGSINADLDSRIELELRLDAKENAEHMMLVDLARNDVARISKTGTRYVADLLKVDRYSHVMHLVSRVVGQLADDLDALHAYQASMNMGTLTGAPKIKAMQLISEVEKQTRGVYGGAIGYFNGYGDLDSCIVIRSAYVENGVAEIQAGAGVVLDSIPIAEADETRTKAQAVISAIKNVHGV	not soluble
MGSDKIHHHHHHMGGNRFGQSPVTGGAGVNAVAKRACLDDVQIAFGQGHRVHVARADTAPDLTRAFAQPIHLCTPICPPRTLTTTRHMDNPHGRAIVHAMEQLDADILIVGGGLNGPCLALACAQAGLSSVVLDALPAQTREETGFDGRAYALALASVRMLDALGIWNQVEDHAQPMLEIKASDGRAGEGAAPFFLHFDHAEIEEGPMGHMLEDRYLRRALMAAMEASSLVAHRAASRVLSQDTNGMASVTLDGGEVLRGRLLIGADGKRSGVAERAGIRRMGWDYNQTALVCAVDHDRPHNGIAHQFFMPGGPLAILPLPGNRSSIVWSESEPRASELAAADDDTFMDALRPAFGDFLGNISLTGQRHSYPLSLSLAQAFVAEKLALVGDAAHGVHPIAGQGLNLGLRDVSALAETLADAKRRGEDFARRDVLDRYQQWRRFDTAGLAVATDSVNRLFSNDNPAVRAIRDIGMGAIGALPTLRRRFIREAAGLTGDLPRLMQGRTL	not soluble
MILVNRETRVLVQGITGREGQFHTKQMLSYGTKIVAGVTPGKGGMEVLGVPVYDTVKEAVAHHEVDASIIFVPAPAAADAALEAAHAGIPLIVLITEGIPTLDMVRAVEEIKALGSRLIGGNCPGIISAEETKIGIMPGHVFKRGRVGIISRSGTLTYEAAAALSQAGLGTTTTVGIGGDPVIGTTFKDLLPLFNEDPETEAVVLIGEIGGFDEEEAAAWVKDHMKKPVVGFIGGRSAPKGKRMGHAGAIIMGNVGTPESKLRAFAEAGIPVADTIDEIVELVKKALG	soluble
MGSDKIHHHHHHHKKTFDYIFNKTEAITLEQSKLTLSKDITVLSFSDSSMVDRNSSIIKVDSGWIVYSKNSESSILSFTSDGQFSGYIGHRGNGPGEYTSVYDVVVNQKSKVLEVLSDGGIFCYTFGGDFLDKKEVTYPAFSFAIDDRQNYWFYVGNNTTYGDAKMICTDENIANVAYYLHQKSNMLPMVENNFGRNGEWLTFHESLNHDLYTIENGKLDLSYAMDFPNYKLPKKLHELSGMEVIEELQRSNYASIINYLENHDYIFLNVLLNNEGERIPEVYYWIISKNLQEEVIIKIDGGISAESYLFNTQYLSNDNKLYCLGYIWENKDVESFEENLNPSVVALEFNELFSKVR	not soluble
MPKAVAVLFFLLFTSLSYAESAFDIVQKSDQAMRGKSSYSEATMEIVRPDWTRSMTMKSWTKGTELSLVLVTAPAKDKGSASLKRHREMWNWVPSIERVIKIAPSMLSQSWMGSDFTNDDLINQSSIVVDYQHALLGNDSFEGDKVWVIEATAKPDAPVVWNKVTLWISQSTYLQRKVEFYDEFDERVNVLTTYDVKELGGRKIATRMEMKPVDKPGNKTIFTTHQAQFDFDINDDFFSQQQMKSLRD	not soluble
MGDVSKLSSNQVKLLETAFRDFETPEGSGRVSTDQIGIILEVLGIQQTKSTIRQLIDEFDPFGNGDIDFDSFKIIGARFLGEEVNPEQMQQELREAFRLYDKEGNGYISTDVMREILAELDETLSSEDLDAMIDEIDADGSGTVDFEEFMGVMTGGDE	soluble
MSLKSESKGGSNALVVSTFGLSEDIVKKDIIAPFEKENEAKVTLEVGNSADRFTKLKNNPNAGIDVIELAQANAAQGGKDGLFEKITEKEVPNLSQLTPGAKEVFESGAGVPIAVNSIGIVYNKEKLGKEIKNWDDLWSADLKGKISVPDVATTAGPLMLYVASEHAGQDITKDNGKAAFEAMKELKPNVVKTYSKSSDLANMFQSGEIEAAVVADFAVDIIQGAAENVTYIVPESGTYANYNTVNIPKKAQNKETAFKFVNARISEESQKAKAISLNEGPTNQQVTLSEKEAKNKTYGAIAERAKTVDFNFINSQLADWIDQWNRTMNQEGHHHHHH	soluble
MIDNVADGKIEADSKQAVNGGQLRDYTEQQMKIVLDDAKKYTDEQVKDRVSNGVNEAKSYTDMKFETLSYVVEDVRKAARQAVAMGLAVSNLRYYDIPGSLSLSFGTGIWRNQSAFAIGVGYTSEDGNIRSNLSITSADSHWDIGAGLRIKLN	not soluble
LDPEEIRKRLEHTERQFRNRRKILIRGLPGDVTNQEVHDLLSDYELKYCFVDKYKGTAFVTLLNGEQAEAAINAFHQSRLRERELSVQLQPTDALLCVANLPPSLTQQQFEELVRPFGSLERCFLVYSERTGQSKGYGFAEYMKKDSAARAKSDLLGKPLGPRTLYVHWTDAGQLTPALLHSRCLCVDRLPPGFNDVDALCRALSAVHSPTFCQLACGQDGQLKGFAVLEYETAEMAEEAQQQADGLSLGGSHLRVSFCAPGPPGRSMLAALIAAQATALNRG	soluble
MGSDKIHHHHHHMNLTIRQFRAFLAVADLRSFTAASKYLCITQGAVSGLINEMESQMEVSLFDRTSRVVKLSPDGEKFLPAAMRVVEEFQRAENYARDLKEIKKSLVRVVGAPLIACAFLPQIIHAFKRQHPHTHVQLIDKPMSQLQKSIMLGEADFGIGPERPLEPEIDKQTLFTTEIALYCHPDYRLHKKTVRWEEIQSEELIAVGNESIPMISATAGVRIKPKMTVEHMATAMSLAAQCEGVVIAGTFSRHYAKSYQLATCSLTPPLRRNMNLYFHAWRAQTPATQRFRDFLFSYVDEHHDAPANQR	not soluble
